Patent US9464326B2, “Total and phosphorylated IL-1 receptor-associated kinase-1 and IL-1 receptor-associated kinase-4 as a biomarker for cancer progression and chemotherapy resistance” (University of Maryland, Baltimore, priority 2012, dated 2016)

What was measured:
Format in all cases: cell-based, human
CCRF-CEM cells = test: Cell number and apoptosis assays; conditions: IRAK-1,-4 inhibitor 0-20 μM plus titrated drug, apoptosis by 7AAD at 48 hours, FIG. 23
Experimental: (§1) TLR ligands were diluted 2-fold. Cell lines (25-40×10^3/well) were cultured for 54 hours, whereas fresh patient-derived T-ALL cells (200×10^3/well) were cultured for 30 hours prior to adding [^3H]-thymidine for 18 hours. After this time point, cells were harvested with a Packard Filter-Mate-96 cell harvester (Perkin Elmer, Waltham, Mass., USA) and counted on Packard Top Count-NXT (Perkin Elmer, Waltham, Mass., USA). Results were expressed as average counts per minute (cpm). In some experiments CCRF-CEM cells were pre-treated with TLR1-TLR2 ligand (Pam3CysK4; 2.5 ug/ml) for 48 hrs, washed, and then cultured in the presence of varying concentrations of FBS. Forty-eight hours later, proliferation (±SD) was determined by ^3H-thymidine incorporation. Alternatively, apoptosis was measured by flow cytometry after staining cells with Annexin-V (BD Pharmingen, San Diego, Calif., USA) and propidium iodide (Sigma). Cell number was counted under microscopy by staining cells with trypan blue.
CCRF-CEM cells were treated with IRAK-1,-4 inhibitor for 24, 48, 72, and 96 hours.
The T-ALL cell line CCRF-CEM was cultured in the presence of 0, 1.2, 5, 10, and 20 μM IRAK-1,-4 inhibitor. (FIG. 23). To each concentration of IRAK-1,-4 inhibitor titrating doses of ABT-737 (1000→15 nM) vincristine, VS (10→0.1 nM), and paclitaxol, PAC (100→1.5 nM). […] Apoptosis was measure 48 hours later by staining cells with 7AAD and analyzed by flow cytometry.

CCRF-CEM = test: Proliferation (3H-thymidine) of CCRF-CEM; conditions: 3H-thymidine uptake, 72 h
From the text: (§2) CCRF-CEM, CEM/C1, CEM/C2, CEM-C7, Jurkat, Loucy, Molt-4, HSB-2, SUP-T1, Hut 78, HH, Hut 102, MO, and H9 T-leukemia and T-lymphoma cell lines were purchased from the American Type Culture Collection (Manassas, Va., USA). All of the cell lines were initially expanded and cryopreserved within one month of receipt. Cells were typically used for 6 months at which time a fresh vial of cryopreserved cells was used. Total T cells from healthy donors were isolated via negative selection followed by positive selection using a CD3+ selection kit (Invitrogen, Carlsbad, Calif.). T cells were isolated from patients with T-ALL bone marrow or peripheral blood samples containing more than 70% leukemia cells using a CD2+ isolation kit (STEMCELL Technologies, Vancouver, Canada). All tissues were collected under institutional IRB-approved protocols and all participants gave written informed assent/consent. For in vitro experiments, T-ALL cells were cultured in AIM-V medium supplemented with 20% human AB serum in the presence of recombinant human stem cell factor (50 ng/mL; Amgen, Thousand Oaks, Calif.), insulin (20 nM; Sigma-Aldrich, St Louis, Mo., USA) and IL-7 (50 ng/mL; R&D Systems, Minneapolis, Minn., USA). In other experiments, protein lysate was collected using the Full Moon Biosystems (Sunnyvale, Calif., USA) buffer prior to protein examination by western blot or protein array.
as §1, with “Cells were cultured in a 96-well plate (Corning Costar, Corning, N.Y., USA) with various concentrations of TLR ligands 1-9, starting at 10 μg/ml, in a final volume of 200 ul. TLR ligands” for “TLR ligands”
(§3) The following TLR ligands were purchased from Invivogen (San Diego, Calif., USA): tripalmitoyl-S-(bis(palmitoyloxy)propyl)-Cys-Ser-(Lys)3-Lys (TLR1-2); Poly I:C (TLR3); ultrapure S. Minnesota Lipopolysaccharide (TLR4); S. typhimurium flagellin (TLR5); FSL-1 (TLR2/6); Imiquimod (TLR7); ssRNA40/Lyovec (TLR8); CpG-ODN 2006 (TLR9).

HSB-2 = test: Proliferation (3H-thymidine) of HSB-2
From the text: as §2
as §1, with “Cells were cultured in a 96-well plate (Corning Costar, Corning, N.Y., USA) with various concentrations of TLR ligands 1-9, starting at 10 μg/ml, in a final volume of 200 ul. TLR ligands” for “TLR ligands”
as §3

CEM-C1 = test: Proliferation (3H-thymidine) of CEM-C1; conditions: 3H-thymidine uptake, 72 h
From the text: as §2
as §1, with “Cells were cultured in a 96-well plate (Corning Costar, Corning, N.Y., USA) with various concentrations of TLR ligands 1-9, starting at 10 μg/ml, in a final volume of 200 ul. TLR ligands” for “TLR ligands”, “trypan blue. […]” for “trypan blue.”

Primary T-cells Non-Act = test: Proliferation (3H-thymidine) of non-activated primary T-cells; conditions: 3H-thymidine uptake, 72 h
From the text: as §2, with “In other experiments, protein lysate was collected using the Full Moon Biosystems (Sunnyvale, Calif., USA) buffer prior to protein examination by western blot or protein array.” left out
(§4) Cells were cultured in a 96-well plate (Corning Costar, Corning, N.Y., USA) with various concentrations of TLR ligands 1-9, starting at 10 μg/ml, in a final volume of 200 ul. […] After this time point, cells were harvested with a Packard Filter-Mate-96 cell harvester (Perkin Elmer, Waltham, Mass., USA) and counted on Packard Top Count-NXT (Perkin Elmer, Waltham, Mass., USA). Results were expressed as average counts per minute (cpm). […] Forty-eight hours later, proliferation (±SD) was determined by ^3H-thymidine incorporation. Alternatively, apoptosis was measured by flow cytometry after staining cells with Annexin-V (BD Pharmingen, San Diego, Calif., USA) and propidium iodide (Sigma). Cell number was counted under microscopy by staining cells with trypan blue. […]

Molt-4 = test: Proliferation (3H-thymidine) of Molt-4; conditions: 3H-thymidine uptake, 72 h
From the text: as §2, with “In other experiments, protein lysate was collected using the Full Moon Biosystems (Sunnyvale, Calif., USA) buffer prior to protein examination by western blot or protein array.” left out
as §4

Loucy = test: Proliferation (3H-thymidine) of Loucy; conditions: 3H-thymidine uptake, 72 h
From the text: as §2
as §1, with “Cells were cultured in a 96-well plate (Corning Costar, Corning, N.Y., USA) with various concentrations of TLR ligands 1-9, starting at 10 μg/ml, in a final volume of 200 ul. TLR ligands” for “TLR ligands”, “trypan blue. […]” for “trypan blue.”

Hut 102 = test: Proliferation (3H-thymidine) of Hut 102; conditions: 3H-thymidine uptake, 72 h
From the text: as §2, with “In other experiments, protein lysate was collected using the Full Moon Biosystems (Sunnyvale, Calif., USA) buffer prior to protein examination by western blot or protein array.” left out
as §4

H9 = test: Proliferation (3H-thymidine) of H9; conditions: H9
From the text: as §2
as §1, with “Cells were cultured in a 96-well plate (Corning Costar, Corning, N.Y., USA) with various concentrations of TLR ligands 1-9, starting at 10 μg/ml, in a final volume of 200 ul. TLR ligands” for “TLR ligands”
as §3

Hut-78 = test: Proliferation (3H-thymidine) of Hut-78; conditions: 3H-thymidine uptake, 72 h
From the text: as §2, with “In other experiments, protein lysate was collected using the Full Moon Biosystems (Sunnyvale, Calif., USA) buffer prior to protein examination by western blot or protein array.” left out
as §4

G361 melanoma cells = test: Western blot of IRAK phosphorylation in G361; conditions: 48 hours
Experimental: (§5) FIG. 22. Effects of TLR stimulation and cytokines on IRAK phosphorylation in melanoma cells. (A) A375 cells were cultured in the presence of anti-IL-18, anti-CXCL-1, (R&D Systems), anti-IL-1 (BioLegend), or mouse IgG (Sigma-Aldrich) all at 10 μg/ml. Forty-eight hours later the levels of the indicated proteins were determined by western blot. (B) A375 cells, which express p-IRAK-1 and p-IRAK-4, and G361 melanoma cells, which express very low levels of p-IRAK-1 (and express TLR5) were cultured in the presence of TLR1-TLR2 agonist (Pam3CysK4; 2.5 μg/ml) or TLR5 (flagellin; 100 ng/ml; InVivogen). Forty-eight hours later total protein was collected and the levels of the indicated proteins were examined by western blot.
(§6) Total cell extracts were prepared from melanoma cells. […] Melanoma tissue arrays were purchased from US Biomax, Inc (Rockville, Md.). For immunohistochemical staining samples were stained with mouse monoclonal anti-human phosphor-IRAK.-4 antibody (Abnova; dilution, 3.5 μg/ml) or normal mouse serum. Tissue histology sections (5-μm-thick) were deparaffinized, hydrated, heated in boiling 10 mmol/L sodium citrate (pH 6.0), for antigen retrieval, for 30 min and washed in Tris buffer. Peroxide blocking was done with 3% […] in methanol at room temperature for 15 min, followed by 10% fetal bovine serum in TBS-t for 30 min at room temperature. Primary antibody incubation was done overnight at 4° C. Secondary antibody incubation with horse anti-mouse (1:200; Vector Laboratories, Burlingame, Calif.) was done for 1 hr, followed by application of diaminobenzidine chromogen for 5 min. The slides were then counterstained with hematoxylin and topped with a coverslip. IHC specimens were analyzed using “quick score” system in which the intensity of the immunohistochemical reaction was scored by multiplying the intensity 1 (weak), 2 (moderate), and 3 (strong) and the proportion of cells staining positively 0 (<10%), 1 (10-25%), 2 (26-50%), 3 (51-75%) or 4 (>75%).

A375 cells = test: Western blot of IRAK phosphorylation in A375; conditions: 48 hours
Experimental: as §5, §6

[1] = tested on: Primary T-cells Activated; test: Proliferation (3H-thymidine) of activated primary T-cells; conditions: Primary T-cells, Activated
From the text: as §2
as §1, with “Cells were cultured in a 96-well plate (Corning Costar, Corning, N.Y., USA) with various concentrations of TLR ligands 1-9, starting at 10 μg/ml, in a final volume of 200 ul. TLR ligands” for “TLR ligands”
as §3

SupT1 = test: Proliferation (3H-thymidine) of SupT1; conditions: SupT1; 3H-thymidine uptake, 72 h
From the text: as §2
as §1, with “Cells were cultured in a 96-well plate (Corning Costar, Corning, N.Y., USA) with various concentrations of TLR ligands 1-9, starting at 10 μg/ml, in a final volume of 200 ul. TLR ligands” for “TLR ligands”
as §3

Jurkat = test: Proliferation (3H-thymidine) of Jurkat; conditions: 3H-thymidine uptake, 72 h
From the text: as §2
as §1, with “Cells were cultured in a 96-well plate (Corning Costar, Corning, N.Y., USA) with various concentrations of TLR ligands 1-9, starting at 10 μg/ml, in a final volume of 200 ul. TLR ligands” for “TLR ligands”, “trypan blue. […]” for “trypan blue.”

HH = test: Proliferation (3H-thymidine) of HH; conditions: 3H-thymidine uptake, 72 h
From the text: as §2, with “In other experiments, protein lysate was collected using the Full Moon Biosystems (Sunnyvale, Calif., USA) buffer prior to protein examination by western blot or protein array.” left out
as §4

CEM-C7 = test: Proliferation (3H-thymidine) of CEM-C7
From the text: as §2
as §1, with “Cells were cultured in a 96-well plate (Corning Costar, Corning, N.Y., USA) with various concentrations of TLR ligands 1-9, starting at 10 μg/ml, in a final volume of 200 ul. TLR ligands” for “TLR ligands”
as §3

MO = test: Proliferation (3H-thymidine) of MO; conditions: 3H-thymidine uptake, 72 h
From the text: as §2, with “In other experiments, protein lysate was collected using the Full Moon Biosystems (Sunnyvale, Calif., USA) buffer prior to protein examination by western blot or protein array.” left out
as §4

CEM-C2 = test: Proliferation (3H-thymidine) of CEM-C2; conditions: 3H-thymidine uptake, 72 h
From the text: as §2
as §1, with “Cells were cultured in a 96-well plate (Corning Costar, Corning, N.Y., USA) with various concentrations of TLR ligands 1-9, starting at 10 μg/ml, in a final volume of 200 ul. TLR ligands” for “TLR ligands”, “trypan blue. […]” for “trypan blue.”

[2] = Pam3CysK4 2.5 μg/ml or flagellin 100 ng/ml, FIG. 22B

oligomicin
synergy with IRAK-1,-4 inhibitor (CCRF-CEM cells): No synergist effect

B1: Flagellin: S. typhimurium flagellin, TLR5 ligand (Invivogen) (protein, UniProt P06179 2-495, looked up)
Flagellin: AQVINTNSLSLLTQNNLNKSQSALGTAIERLSSGLRINSAKDDAAGQAIANRFTANIKGLTQASRNANDGISIAQTTEGALNEINNNLQRVRELAVQSANSTNSQSDLDSIQAEITQRLNEIDRVSGQTQFNGVKVLAQDNTLTIQVGANDGETIDIDLKQINSQTLGLDTLNVQQKYKVSDTAATVTGYADTTIALDNSTFKASATGLGGTDQKIDGDLKFDDTTGKYYAKVTVTGGTGKDGYYEVSVDKTNGEVTLAGGATSPLTGGLPATATEDVKNVQVANADLTEAKAALTAAGVTGTASVVKMSYTDNNGKTIDGGLAVKVGDDYYSATQNKDGSISINTTKYTADDGTSKTALNKLGGADGKTEVVSIGGKTYAASKAEGHNFKAQPDLAEAAATTTENPLQKIDAALAQVDTLRSDLGAVQNRFNSAITNLGNTVNNLTSARSRIEDSDYATEVSNMSRAQILQQAGTSVLAQANQVPQNVLSLLR
Proliferative effects of TLR ligands (CCRF-CEM): ∘ | Proliferative effects of TLR ligands (HSB-2; 3H-thymidine uptake, 72 h): − (reduced proliferation) | TLR ligand concentration in parentheses below the symbol (HSB-2; no unit in table (μg/ml)): (10) | Proliferative effects of TLR ligands (CEM-C1): ∘ | Proliferative effects of TLR ligands (Primary T-cells Non-Act): ∘ | Proliferative effects of TLR ligands (Molt-4): ∘ | Proliferative effects of TLR ligands (Loucy): ∘ | Proliferative effects of TLR ligands (Hut 102): ∘ | Proliferative effects of TLR ligands (H9; 3H-thymidine uptake, 72 h): − (reduced proliferation) | TLR ligand concentration in parentheses below the symbol (H9; no unit in table (μg/ml)): (10) | Proliferative effects of TLR ligands (Hut-78): ∘ | p-IRAK-1 or p-IRAK-4 expression levels (G361 melanoma cells; [2]): neither TLR-1-TLR2 agonist (Pam3CysK4), nor TLR5 (Flagellin) stimulation increased or induced | total and p-IRAK-4 levels (G361 melanoma cells; flagellin 100 ng/ml): reduced | p-IRAK-1 or p-IRAK-4 expression levels (A375 cells; [2]): neither TLR-1-TLR2 agonist (Pam3CysK4), nor TLR5 (Flagellin) stimulation increased or induced | total and p-IRAK-4 levels (A375 cells; flagellin 100 ng/ml): reduced | Proliferative effects of TLR ligands ([1]; 3H-thymidine uptake, 72 h): + (enhanced proliferation by 25% or greater) | TLR ligand concentration in parentheses below the symbol ([1]; no unit in table (μg/ml)): (10) | Proliferative effects of TLR ligands (SupT1): ∘ | Proliferative effects of TLR ligands (Jurkat): ∘ | Proliferative effects of TLR ligands (HH): ∘ | Proliferative effects of TLR ligands (CEM-C7; 3H-thymidine uptake, 72 h): − (reduced proliferation) | TLR ligand concentration in parentheses below the symbol (CEM-C7; no unit in table (μg/ml)): (2.5) | Proliferative effects of TLR ligands (MO): ∘ | Proliferative effects of TLR ligands (CEM-C2): ∘
